The series addresses SOX11 (UniProt P35716 34-132). The series can be described thus: EMSA. A general note: Mobility shift assays separate free from complexed probe on a gel.

Chain of SOX11 (P35716 34-132): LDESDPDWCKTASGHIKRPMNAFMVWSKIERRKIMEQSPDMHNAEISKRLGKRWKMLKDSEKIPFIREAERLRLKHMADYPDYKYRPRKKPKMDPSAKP

B1: modified Widom 601 with SOX11 site, free DNA (dsDNA)
DNA 1: CTGGAGAATCCCGGTCTGCAGGCCGCTCAATTGGTCGTAGACAGCTCTAGCACCGCTTAAACGCACGTACGGTATTGTTTATTTTGTTCCTCCGCCAAGGGGATTACTCCCTAGTCTCCAGGCACGTGTCAGATATATACATCCTGT
DNA 2: ACAGGATGTATATATCTGACACGTGCCTGGAGACTAGGGAGTAATCCCCTTGGCGGAGGAACAAAATAAACAATACCGTACGTGCGTTTAAGCGGTGCTAGAGCTGTCTACGACCAATTGAGCGGCCTGCAGACCGGGATTCTCCAG
Turning to B1, the binding result was “binds”.
